The source of these data is patent publication US20200299408A1 (Genentech, published 2020).

Where a chain is given by its changes, count along the chain named. Names and notes keep the numbering of the source. Values joined by “and” are separate entries in the source; they are usually repeats but may differ in a detail not shown here. Equal values may be shown once. Where only a bound is given, the exact number is not on record here.

Test [1] concerns the target T1, human HER2 on cells (human, UniProt P04626 23-1255). The experiment in a line: cell-based or functional assay.
The target in test [2] is T2, HER2 extracellular domain (ECD) (UniProt P04626 23-652, limits assumed).
T2 construct: extracellular domain; also called soluble HER2 extracellular domain; HER2 ECD
Description: HER2 KD relative to 4D5 (WT); assay not stated.

Test [3] deals with T2, HER2 extracellular domain (ECD). Description: HER2 binding affinity of the HER2 arm; assay and form of HER2 not stated on the sheet or in the legend.
Test [4] addresses T3, single chain human CD3ε-26mer-CD3γ (CD3εγ) (human).
T3 construct: also called human CD3εγ
T3 chain: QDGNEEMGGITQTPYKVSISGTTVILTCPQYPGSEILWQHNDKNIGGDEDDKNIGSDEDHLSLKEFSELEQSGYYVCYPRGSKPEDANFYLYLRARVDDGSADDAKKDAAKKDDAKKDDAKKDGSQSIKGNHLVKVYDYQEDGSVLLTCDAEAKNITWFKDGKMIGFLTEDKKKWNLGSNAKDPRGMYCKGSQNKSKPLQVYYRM
Description: Biacore, human CD3εγ on chip, antibody in flow-through. (SPR reads the build-up and loss of mass on a sensor chip optically.)

The next test deals with T4, N4A.
T4 construct: Residue number counts from the N-terminus of CD3ε; also called CD3εγ N4A; CD3 mutant N4A
T4 single chain CD3ε-26mer linker-CD3γ: T3 chain with N4A
The experiment in a line: phage ELISA: anti-CD3 antibody coated on the plate, dilution series of M13 phage displaying the CD3εγ variant, anti-M13-HRP, OD A450; [phage] axis 10^-3 to 10^0 without unit. The procedure: (§1) This CD3εγ phagemid was used as a template for making single alanine mutations in CD3ε by Kunkel mutagenesis. […] The effect of alanine mutation in CD3εγ on anti-CD3 antibody binding was assessed using a phage ELISA. Each anti-CD3 antibody was immobilized on a NUNC maxisorp plate at 2 μg/ml in PBS buffer overnight at 4° C. Purified phage supernatant displaying a CD3εγ alanine variant (1.0 OD₄₅₀) was added to the plate and allowed to bind at room temperature with shaking for 1 h. After washing, bound phage was detected with anti-M13-HRP (GE Healthcare cat #45-001-419).
On the technique in general: An ELISA detects its analyte on a solid surface through an enzyme-linked reagent.

The target of the next test is T5, E6A.
T5 construct: Residue number counts from the N-terminus of CD3ε; also called CD3εγ E6A; CD3 mutant E6A
T5 single chain CD3ε-26mer linker-CD3γ: T3 chain with E6A
Described as above. The procedure:
as §1

The next test addresses T6, G3A.
T6 construct: Residue number counts from the N-terminus of CD3ε; also called CD3εγ G3A; CD3 mutant G3A
T6 single chain CD3ε-26mer linker-CD3γ: T3 chain with G3A
The test is described as above. The procedure: as §1

Another test addresses T7, E5A.
T7 construct: Residue number counts from the N-terminus of CD3ε; also called CD3εγ E5A; CD3 mutant E5A
T7 single chain CD3ε-26mer linker-CD3γ: T3 chain with E5A
The test is described as above. The procedure:
as §1

Test [5] concerns the target T3, single chain human CD3ε-26mer-CD3γ …. The experiment in a line: Biacore, monovalent KD of the CD3 arm; CD3 antigen not named on the sheet (reactivity hu, cyno).
Test [6] has the same target. The experiment in a line: monovalent binding affinity, method not stated on the sheet; column huCD3εγ.
The target of a further test is T8, cyCD3εγ (cynomolgus monkey).
T8 chain 1: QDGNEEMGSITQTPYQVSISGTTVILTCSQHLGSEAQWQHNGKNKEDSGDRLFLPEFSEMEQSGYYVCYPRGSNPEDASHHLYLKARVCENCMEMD
T8 chain 2: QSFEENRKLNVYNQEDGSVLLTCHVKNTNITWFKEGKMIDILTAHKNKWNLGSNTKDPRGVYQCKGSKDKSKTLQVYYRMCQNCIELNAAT
The experiment in a line: monovalent binding affinity, method not stated on the sheet.

The target in test [7] is T3, single chain human CD3ε-26mer-CD3γ …. The experiment in a line: Biacore, human CD3εγ on chip, TDB in flow through.
Test [8] addresses T9, human CD3 on T cells (human, UniProt P07766 22-207).
T9 construct: whole, on cells; On cells CD3ε stands in the CD3/TCR complex; also called CD3 antigen; CD3ε
Description: FACS on Jurkat cells (CD3); EC50 table for the curves of FIGS. 21A-21B; source E. coli. The procedure: (§2) Binding affinities for the each of the CD3/CD20 TDBs were tested by Biacore or FACS analysis, as described above for the anti-CD3 antibodies. Briefly, for Biacore binding assays, human CD3εγ was immobilized on Biacore Series S CM5 sensor chip using the amine coupling kit from Biacore and CD3/CD20 TDBs or Fab variants thereof were in the flow through. For FACS binding assays, either Bjab cells (for B cell antigens) or Jurkat cells (for CD3 antigen) were incubated with various concentrations of TDB antibodies at 4° C. for 30 minutes, then cells were washed and incubated with 2nd antibody (anti-huIgG-PE; BD Bioscience) for another 15 minutes, before cells were washed again and ready for FACS analysis.

For test [9], the target named is T9, human CD3 on T cells. Description: FACS on Jurkat cells (CD3), anti-huIgG-PE; number printed beside the curve without a quantity name, taken as EC50. The procedure: as §2
Test [10] has as its target T9, human CD3 on T cells. Description: Scatchard; table 'Monovalent Binding Affinity'; the partner arm is not given, the TDB is taken from legend paragraph 149, p-1410 and Figure 16; cells not named.
The target in test [11] is T9, human CD3 on T cells. Description: FACS on Jurkat cells (CD3), anti-huIgG-PE; number printed beside the curve without a quantity name, taken as EC50. The procedure: as §2
This is another data set of the same source.

Test [12] deals with T9, human CD3 on T cells. The experiment in a line: Scatchard; table headed 'Bivalent Binding Affinity', though its footnote reads 'monovalent binding Kd measured by scatchard'; cells not named.
Test [13] has as its target T9, human CD3 on T cells. Description: FACS on Jurkat cells, anti-huIgG-PE, MFI/PE; panel 'Jurkat / CD3 arm'.
In test [14] the target is T9, human CD3 on T cells. Description: FACS on Jurkat cells (CD3), anti-huIgG-PE; number printed beside the curve without a quantity name, taken as EC50. The procedure:
as §2
The source holds these as a separate data set.

For test [15], the target named is T1, human HER2 on cells. Description: KD (nM) box at the right of the FACS panels; method and antigen form are not stated on the sheet; taken as affinity of the HER2 arm, since the three TDBs differ only in it.

B1: hu4D5.Y100A (bispecific antibody, V domains shown)
VH 1: not shown
VL 1: not shown
VH 2: EVQLVQSGAEVKKPGASVKVSCKASGYTFTNYYIHWVRQAPGQGLEWIGWIYPGDGNTKYNEKFKGRATLTADTSTSTAYLELSSLRSEDTAVYYCARDSYSNYYFDYWGQGTLVTVSS
VL 2: DIVMTQSPDSLAVSLGERATINCKSSQSLLNSRTRKNYLAWYQQKPGQPPKLLIYWASTRESGVPDRFSGSGSGTDFTLTISSLQAEDVAVYYCTQSFILRTFGQGTKVEIK
notes: not the same molecule as m28, which has the UCHT1v9 arm; also called hu4D5.Y100A-40G5c HER2-TDB
In the case of B1, in the test with human HER2 on cells [1], the “EC50 of SKBR3 target cell killing” value was over 10 µg/mL. The KD fold in test [2] was 120 fold. Also, the Kd in test [3] is 60 nM.

B2: anti-CD3 clone 40G5c (antibody, V domains shown)
VH: B1 VH 2
VL: B1 VL 2
notes: also called hu40G5c
As a reminder, the koff is the first-order rate constant of dissociation. By kon is commonly meant the second-order rate constant of association. A high value points to faster complex formation. In the case of B2, the Kd in test [4] is 15 nM; in [5] it was 51 nM; in test [6], 12 nM; with cyCD3εγ, 14 nM. For the same molecule, the koff in test [4] was 0.0176 s⁻¹. In test [4], this molecule registered a kon of 1.2e+06 M⁻¹ s⁻¹. Moreover, the binding result with N4A, in the test with E6A, with G3A and with E5A was “binds” throughout.

B3: 40G5c Ecoli (bispecific antibody, V domains shown)
VH 1: EVQLVESGGGLVQPGGSLRLSCAASGYTFTSYNMHWVRQAPGKGLEWVGAIYPGNGDTSYNQKFKGRFTISVDKSKNTLYLQMNSLRAEDTAVYYCARVVYYSNSYWYFDVWGQGTLVTVSS
VL 1: DIQMTQSPSSLSASVGDRVTITCRASSSVSYMHWYQQKPGKAPKPLIYAPSNLASGVPSRFSGSGSGTDFTLTISSLQPEDFATYYCQQWSFNPPTFGQGTKVEIK
VH 2: B1 VH 2
VL 2: B1 VL 2
modifications: E. coli-produced (aglycosylated) full-length knob-into-hole IgG; constant regions are not in the letters.
notes: E. coli material, aglycosylated; also called CD3/CD20 TDB 2H7v16/40G5c produced in E. coli
The term EC50 denotes the concentration needed to bring the measured effect to its halfway point. In test [7], B3 returned a Kd of 71.5 nM, a koff of 0.0256 s⁻¹ and a kon of 358000 M⁻¹ s⁻¹. In addition, the EC50 in the test with human CD3 on T cells [8] was 1.85 µg/mL and ~12 nM.

B4: CD3/CD20 TDB 2H7v16/UCHT1v9 (bispecific antibody, human IgG1, V domains shown)
VH 1: B3 VH 1
VL 1: B3 VL 1
VH 2: EVQLVESGGGLVQPGGSLRLSCAASGYSFTGYTMNWVRQAPGKDLEWVALINPYKGVSTYNQKFKDRFTISVDKSKNTAYLQMNSLRAEDTAVYYCARSGYYGDSDWYFDVWGQGTLVTVSS
VL 2: DIQMTQSPSSLSASVGDRVTITCRASQDIRNYLNWYQQKPGKAPKLLIYYTSRLESGVPSRFSGSGSGTDYTLTISSLQPEDFATYYCQQGNTLPWTFGQGTKLELK
notes: also called TDB A
As usually defined, the EC50 (read off the curve) is the concentration at which the effect is half-maximal. Low readings indicate higher potency in that assay, high ones lower potency in that assay. For B4, the EC50 is 0.533 µg/mL with human CD3 on T cells [9]; 0.21 µg/mL and 1.4 nM with human CD3 on T cells [11]; 0.09 µg/mL and 0.6 nM with human CD3 on T cells [14]. In addition, the values for the Kd with human CD3 on T cells [10] and in the test with human CD3 on T cells [12] were 4.2 nM and 3 nM, respectively. Besides, the “EC50 (read off the curve)” value with human CD3 on T cells [13] was about 0.1 µg/mL.

B5: hu4D5.Y100A/UCHT1v9 TDB (bispecific antibody, V domains shown)
VH 1: not shown
VL 1: not shown
VH 2: B4 VH 2
VL 2: B4 VL 2
notes: also called hu4D5.Y100A-TDB
B5 yielded a Kd in the test with human HER2 on cells [15] of 190 nM.
